Measured values from the supplement of paper PMC10724198.

Experiments:
[1] = system: Saccharomyces cerevisiae; assay: protein stability index of tFT-peptide fusion in wild type (PSI (0-1 scale)); higher = more stable (slower turnover); settings: genetic background: wild type
Protocol: (§1)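 MPS profiling in S. cerevisiae of two library types built from selected 12-aa C-degron peptides (IN1, IN2, LN1, LN3, VN2, R1-R5, W1-W3, Atg1 and Rpa12 C-termini): saturation mutagenesis libraries and C-terminal +1 capping libraries (13 aa). Each peptide is fused to the C-terminus of a sfGFP-mCherry timer, after a GGGS linker. Cells are FACS-sorted into 8 mCherry/sfGFP bins and sequenced. PSI runs from 0 (unstable) to 1 (stable), measured once in wild type and in the das1Δ or doa10Δ background.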

[2] = system: Saccharomyces cerevisiae; assay: protein stability index of tFT-peptide fusion in deletion strain of DAS1 (PSI (0-1 scale)); higher = more stable (slower turnover)
Protocol: as §1
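Wherever protein stability index of tFT-peptide fusion in deletion strain of DAS1 is given: PSI is a weighted mean of each variant's read distribution over the sorted stability bins, computed only for variants having over 10 reads in total.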
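Wherever protein stability index of tFT-peptide fusion in wild type is given: PSI derived as read-weighted mean over the 8 sorting bins, only variants exceeding 10 total reads kept, mCherry placed adjacent to the peptide and sfGFP distal.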

| Sequence | protein stability index [1] | protein stability index [2] |
| --- | --- | --- |
| PSLAASFWRQVG | 0.146 | 0.653 |
| FSMRWTFRYWMN | 0.07 | 0.485 |
| PNKRNHLIKLLN | 0.0744 | 0.597 |
| FSMRWTFRYWVT | 0.225 | 0.469 |
| PDKRNGLIKLLN | 0.222 | 0.614 |
| LKHKKGQKQKIN | 0.094 | 0.576 |
| RLIQPLPVQFLNY | 0.433 | 0.641 |
| PSLAASFWFVVG | 0.658 | 0.666 |
| PSLAASFWSVVG | 0.694 | 0.709 |
| PSLAAPFWRVVG | 0.182 | 0.696 |
| CTSNGYKFRTNN | 0.381 | 0.674 |
| PSLAAQFWRVVG | 0.14 | 0.696 |
| FSMRWTFRYWSN | 0.313 | 0.538 |
| VRGAVGGWRLDG | 0.648 | 0.691 |
| PDKRNHLIKHLN | 0.0778 | 0.601 |
| FSMRQTFRYWVN | 0.0909 | 0.558 |
| PDKRNHLIWLLN | 0.0587 | 0.705 |
| KKHKKGQKQKINR | 0.644 | 0.657 |
| KKHKKGQKQKINP | 0.658 | 0.663 |
| AHWRVGLWRGAS | 0.43 | 0.688 |
| PDKRNELIKLLN | 0.115 | 0.608 |
| RDKRNHLIKLLN | 0.1 | 0.612 |
| PDWRNHLIKLLN | 0.144 | 0.627 |
| ARWRVVLWRGAS | 0.517 | 0.621 |
| PDKRNHLIKLRN | 0.623 | 0.672 |

| Sequence | protein stability index [1] | protein stability index [2] |
| --- | --- | --- |
| CSMRWTFRYWVN | 0.0623 | 0.573 |
| FSMRWTFRYWLN | 0.0521 | 0.486 |
| PDKRQHLIKLLN | 0.065 | 0.562 |
| PDKRNYLIKLLN | 0.119 | 0.601 |
| PDKRNHLISLLN | 0.438 | 0.614 |
| RLIQPLPVIFLN | 0.138 | 0.548 |
| VRGAVGGWRLVA | 0.151 | 0.677 |
| IKILRQKMNHQN | 0.177 | 0.659 |
| RMIQPLPVQFLN | 0.045 | 0.571 |
| KKHKKGQKAKIN | 0.241 | 0.611 |
| CTSCGEKFRTNN | 0.523 | 0.666 |
| KKHKKGQKMKIN | 0.105 | 0.583 |
| VRGAVGGWRLVH | 0.233 | 0.666 |
| KKHKKGQKQKIH | 0.114 | 0.662 |
| FSPRWTFRYWVN | 0.075 | 0.59 |
| PSLAASFWRVVI | 0.263 | 0.716 |
| DKILRQKMNHQN | 0.121 | 0.672 |
| KKHKKGQYQKIN | 0.0851 | 0.569 |
| CTWCGYKFRTNN | 0.224 | 0.685 |
| FWMRWTFRYWVN | 0.0402 | 0.379 |
| FSMRWTFRYMVN | 0.0804 | 0.577 |
| PSLAASFNRVVG | 0.643 | 0.673 |
| VRGAVGGWRLVGR | 0.676 | 0.674 |
| PDKRNHPIKLLN | 0.282 | 0.574 |
